According to patent US6777176:

Assays:
[1] = molecular target: enzyme I (phosphoenolpyruvate-protein-phosphatase, EC 2.7.3.9) of the bacterial phosphotransferase system (E. coli) (UniProt P08839); test: cell-based or functional assay
[2] = system: peptides from the phage display library which became phosphorylated by Enzyme I

Substance | uncoupling P1/peptide/h [1] [P1/peptide/h] | phosphorylation of phage displayed peptides by enzyme I with [32P]phosphoenolpyruvate, fold over the average [2] | rate of phosphorylation by enzyme I (pyruvate formation coupled to lactate dehydrogenase) [2]
HPr protein (from UniProt P0AA04 1-85) | 2.7 |  | 
enzyme I (phosphoenolpyruvate-protein-phosphatase, EC 2.7.3.9) of the bacterial phosphotransferase system |  | phosphorylated 25 to 30 fold over the average | The inhibitory peptides are phosphorylated by enzyme I at a much slower rate than Hpr.
